Changes are numbered by the printed parent chain. Read-outs that look alike come from different tables or passages of the source.
How the values were obtained:
[1] = target: GAF (GAGA factor);Ttk69 (Drosophila melanogaster?;Drosophila …, UniProt Q08605;P17789 1-582;1-643, |); assay: EMSA
[2] = target: T1, GAF (GAGA factor);Hsf-S378D (Drosophila melanogaster?;Drosophila …, UniProt Q08605;P22813 1-582;1-691, |S378D); assay: EMSA
T1 sequence 1: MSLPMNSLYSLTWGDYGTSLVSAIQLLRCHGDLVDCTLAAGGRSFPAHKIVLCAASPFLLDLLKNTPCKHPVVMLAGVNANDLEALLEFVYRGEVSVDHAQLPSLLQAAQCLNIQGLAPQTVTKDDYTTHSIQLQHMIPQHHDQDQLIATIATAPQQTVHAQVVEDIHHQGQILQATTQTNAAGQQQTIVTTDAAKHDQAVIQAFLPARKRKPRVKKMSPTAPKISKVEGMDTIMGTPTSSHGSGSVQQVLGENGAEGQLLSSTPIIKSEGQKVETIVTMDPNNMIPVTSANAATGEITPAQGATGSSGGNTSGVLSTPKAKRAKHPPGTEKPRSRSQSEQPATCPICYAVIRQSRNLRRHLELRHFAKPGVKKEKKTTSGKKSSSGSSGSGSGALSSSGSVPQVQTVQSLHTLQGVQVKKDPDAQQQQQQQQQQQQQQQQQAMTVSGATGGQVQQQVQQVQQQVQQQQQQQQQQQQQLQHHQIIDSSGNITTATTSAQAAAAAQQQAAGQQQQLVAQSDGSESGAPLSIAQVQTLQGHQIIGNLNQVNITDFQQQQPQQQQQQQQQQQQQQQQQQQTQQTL
T1 sequence 2: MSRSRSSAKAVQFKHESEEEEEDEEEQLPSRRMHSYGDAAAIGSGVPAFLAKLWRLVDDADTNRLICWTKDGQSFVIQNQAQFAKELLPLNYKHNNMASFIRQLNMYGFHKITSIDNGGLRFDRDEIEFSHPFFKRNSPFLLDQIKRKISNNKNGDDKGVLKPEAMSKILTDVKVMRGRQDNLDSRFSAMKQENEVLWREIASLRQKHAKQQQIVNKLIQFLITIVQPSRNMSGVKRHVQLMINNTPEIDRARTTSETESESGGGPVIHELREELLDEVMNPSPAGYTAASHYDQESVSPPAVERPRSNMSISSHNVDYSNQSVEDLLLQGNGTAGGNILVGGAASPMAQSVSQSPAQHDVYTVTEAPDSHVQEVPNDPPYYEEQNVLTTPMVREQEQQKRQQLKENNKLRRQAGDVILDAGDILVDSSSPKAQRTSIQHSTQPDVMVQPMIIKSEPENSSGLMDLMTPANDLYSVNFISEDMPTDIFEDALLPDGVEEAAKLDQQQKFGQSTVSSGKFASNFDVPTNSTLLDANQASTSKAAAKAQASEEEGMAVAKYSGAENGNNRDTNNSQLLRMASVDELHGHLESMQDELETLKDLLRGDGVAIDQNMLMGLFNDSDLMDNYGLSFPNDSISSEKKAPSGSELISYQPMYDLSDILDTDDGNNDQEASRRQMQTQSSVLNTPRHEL

[3] = target: Ttk69 (UniProt P17789 1-643); assay: EMSA
[4] = target: T2, GAF (GAGA factor) (UniProt Q08605 1-582); assay: EMSA
T2 sequence: T1 sequence 1

[5] = target: Hsf;Ttk69 (Drosophila melanogaster?;Drosophila …, UniProt P22813;P17789 1-691;1-643, |); assay: EMSA
[6] = target: T3, Hsf (UniProt P22813 1-691); assay: EMSA
T3 sequence: T1 sequence 2 with D378S

[7] = target: T4, GAF (GAGA factor);Hsf;Ttk69 (Drosophila melanogaster?;Drosophila …, UniProt Q08605;P22813;P17789 1-582;1-691;1-643, ||); assay: competition
[8] = target: T4, GAF (GAGA factor);Hsf;Ttk69; assay: competition; remark: listed apart in the source

B1: tor-RE 25-bp probe (dsDNA)
DNA 1: CGTTCCTTGCTCAATGAATTTTTCG
DNA 2: CGAAAAATTCATTGAGCAAGGAACG
In the case of B1, the binding signal [1] is reported as 5 fold vs GAF alone, the binding result [2] is reported as “binds” and the binding result [3] is reported as “no binding”. B1: binds [4]; no binding [5]; no binding [6].

B2: HSE competitor (dsDNA)
DNA 1: CGCCTCGAATGTTCGCGAAAAGAGCGCCGG
DNA 2: CCGGCGCTCTTTTCGCGAACATTCGAGGCG
B2: binds [7].

B3: TBS competitor (dsDNA)
DNA 1: TCCTCATGGTCCTGCCGAGCAG
DNA 2: CTGCTCGGCAGGACCATGAGGA
B3: no binding [8].

Source: paper PMC2651784
